In patent publication US20120121591A1 (priority 2009, published 2012):
Read-outs that look alike come from different tables or passages of the source. No end group written: not given here.

Legend:
hKv1.3 [1] = target: T1, hKv1.3 (Homo sapiens, UniProt P22001); experiment: cell-based
hKv1.3 [2] = target: T1, hKv1.3; experiment: cell-based; assay type: cell-based
[3] = test system: IL-2 secretion from T cells in human whole blood; assay type: cell-based
[4] = test system: IFN-g secretion from T cells in human whole blood; assay type: cell-based
[5] = assay type: in vivo, rat; conditions: male SD rats, single SC dose
Method: Hypoactivity and lateral recumbence were also observed at 0.4 mg/kg. […] The severity of swelling was not dose dependent, and all clinical observations noted in all groups that survived to their scheduled euthanasia resolved by approximately 24 hours postdose. […] Other changes noted at lower doses were limited to decreased lymphocytes and triglycerides at 0.4 mg/kg.
All clinical signs were resolved by day 11. […] Hematologic effects in animals given ≧0.5 mg/kg/day were consistent with increased red cell turnover, and correlated with increased spleen weights, and increased splenic hemopoiesis.
Exposures increased with increasing dose up to 2.5 mg/kg, but exposures were similar in rats given 2.5 and 5.0 mg/kg. […] There was a decrease in body weight and body weight gain noted in the 2.5 and 5.0 mg/kg/dose groups. […] Urine chemistry values were increased in a few animals/group at 0.5 or 2.0 mg/kg/day, but these changes were inconsistent among and within animals, and considered unlikely to be related to treatment. There were no test article-related effects on biomarkers of renal injury (beta-2 microglobulin, calbindin, clusterin, cystatin C, glutathione S-transferase alpha, kidney injury molecule-1, neutrophil gelatinase-associated lipocalin, osteopontin, tissue inhibitor of metalloproteinase-1, and vascular endothelial growth factor). […]

human Kv1.3 [6] = target: T2, human Kv1.3 (Homo sapiens, UniProt P22001); assay type: cell-based; conditions: for IC50: read-out: Kv1.3 IC50, whole cell patch clamp
[7] = assay type: in vivo, rat; conditions: Sprague-Dawley rats
Text: Single subcutaneous doses were delivered to animals and serum was collected at various time points after injection. Studies in rats, dogs (beagles), and cynomolgus monkeys involved two to three animals per dose group, with blood and serum collection occurring at various time points over the course of the study. Male Sprague-Dawley (SD) rats (about 0.3 kg), male beagles (about 10 kg) and male cynomolgus monkeys (about 4 kg) were used in the studies described herein (n=3 animals per dose group). Approximately 5 male CD-1 mice were used per dose and time point in our mouse pharmacokinetic studies. Serum samples were stored frozen at −80° C., until analysis in an enzyme-linked immunosorbent assay (ELISA).
Single subcutaneous doses were delivered to animals and serum was collected at various time points after injection. Three animals were used per dose group, with blood and serum collection occurring at various time points over the course of the study. Serum samples were stored frozen at −80° C., until analysis in an enzyme-linked immunosorbent assay (ELISA). […] A brief description of these ELISA protocols is provided: […]

[8] = test system: human CD34-derived mast cells
human Kv1.1 [9] = target: T3, human Kv1.1 (Homo sapiens, UniProt Q09470); assay type: cell-based; conditions: read-out: Kv1.1 IC50, whole cell patch clamp
[10] = target: Glycine (Strychnine insensitive) (Cerep target) (human)
[11] = target: NMDA (Cerep target) (human)
BKCa (human) = BKCa (human) (UniProt Q12791); experiment: cell-based or functional assay
[12] = target: cynomolgus monkey T cell Kv1.3 (cynomolgus monkey); experiment: cell-based or functional assay
hCav1.2 (ICa) (human) = hCav1.2 (ICa) (human) (UniProt Q13936); experiment: cell-based or functional assay
hERG (IKr) (human) = hERG (IKr) (human) (UniProt Q12809); experiment: cell-based or functional assay
hKv1.2 = hKv1.2 (Homo sapiens, UniProt P16389); experiment: cell-based or functional assay
hKv1.4 = hKv1.4 (Homo sapiens, UniProt P22459); experiment: cell-based or functional assay
hKv1.5 = hKv1.5 (Homo sapiens, UniProt P22460); experiment: cell-based or functional assay
hKv1.6 = hKv1.6 (Homo sapiens, UniProt P17658); experiment: cell-based or functional assay
hKv1.7 = hKv1.7 (Homo sapiens, UniProt Q96RP8); experiment: cell-based or functional assay
hKv4.3 (Ito) (human) = hKv4.3 (Ito) (human) (UniProt Q9UK17); experiment: cell-based or functional assay
hNav1.5 (INa) (human) = hNav1.5 (INa) (human) (UniProt Q14524); experiment: cell-based or functional assay
human Kv1.1 [13] = target: T3, human Kv1.1; experiment: cell-based or functional assay
human Kv1.3 [14] = target: T2, human Kv1.3; experiment: cell-based or functional assay
[15] = target: Glycine (Strychnine insensitive) (Cerep target) (human); experiment: Cerep safety pharmacology binding assay
[16] = target: NMDA (Cerep target) (human); experiment: Cerep safety pharmacology binding assay
[17] = read-out: WB (IL-2) IC50 (nM, Avg)
[18] = read-out: WB (IFNg) IC50 (nM, Avg)

T2 sequence (P22001 whole entry): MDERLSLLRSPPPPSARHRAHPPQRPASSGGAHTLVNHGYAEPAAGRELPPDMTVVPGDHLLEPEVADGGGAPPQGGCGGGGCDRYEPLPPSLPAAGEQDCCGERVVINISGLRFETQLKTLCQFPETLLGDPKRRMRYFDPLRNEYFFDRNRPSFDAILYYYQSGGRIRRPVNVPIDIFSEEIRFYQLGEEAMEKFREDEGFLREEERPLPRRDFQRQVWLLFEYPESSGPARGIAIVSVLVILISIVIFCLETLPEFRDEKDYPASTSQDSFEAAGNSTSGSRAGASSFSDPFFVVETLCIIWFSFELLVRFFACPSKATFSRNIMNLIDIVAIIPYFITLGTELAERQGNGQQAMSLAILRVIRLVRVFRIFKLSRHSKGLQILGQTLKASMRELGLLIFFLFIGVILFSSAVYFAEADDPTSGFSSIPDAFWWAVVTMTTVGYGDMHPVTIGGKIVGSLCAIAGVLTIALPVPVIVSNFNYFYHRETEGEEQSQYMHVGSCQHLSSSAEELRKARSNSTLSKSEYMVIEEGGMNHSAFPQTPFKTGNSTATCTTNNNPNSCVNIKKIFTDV
T1 sequence (P22001 whole entry): as above
T3 sequence (Q09470 whole entry): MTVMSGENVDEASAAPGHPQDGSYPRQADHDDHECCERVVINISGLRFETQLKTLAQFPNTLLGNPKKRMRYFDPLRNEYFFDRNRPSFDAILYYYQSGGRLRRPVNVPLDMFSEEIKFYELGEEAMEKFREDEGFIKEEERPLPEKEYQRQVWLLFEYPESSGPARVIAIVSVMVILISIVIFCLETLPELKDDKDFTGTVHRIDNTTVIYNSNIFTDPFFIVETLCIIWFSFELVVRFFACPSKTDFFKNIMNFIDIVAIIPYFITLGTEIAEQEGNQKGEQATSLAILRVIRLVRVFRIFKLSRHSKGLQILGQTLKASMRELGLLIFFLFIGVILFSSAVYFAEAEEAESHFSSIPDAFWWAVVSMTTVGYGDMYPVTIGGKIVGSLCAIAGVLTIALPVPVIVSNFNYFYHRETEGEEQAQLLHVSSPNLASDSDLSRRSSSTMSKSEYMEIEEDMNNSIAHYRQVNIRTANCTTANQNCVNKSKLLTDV
Sequence of hNav1.5 (INa) (human) (Q14524 whole entry): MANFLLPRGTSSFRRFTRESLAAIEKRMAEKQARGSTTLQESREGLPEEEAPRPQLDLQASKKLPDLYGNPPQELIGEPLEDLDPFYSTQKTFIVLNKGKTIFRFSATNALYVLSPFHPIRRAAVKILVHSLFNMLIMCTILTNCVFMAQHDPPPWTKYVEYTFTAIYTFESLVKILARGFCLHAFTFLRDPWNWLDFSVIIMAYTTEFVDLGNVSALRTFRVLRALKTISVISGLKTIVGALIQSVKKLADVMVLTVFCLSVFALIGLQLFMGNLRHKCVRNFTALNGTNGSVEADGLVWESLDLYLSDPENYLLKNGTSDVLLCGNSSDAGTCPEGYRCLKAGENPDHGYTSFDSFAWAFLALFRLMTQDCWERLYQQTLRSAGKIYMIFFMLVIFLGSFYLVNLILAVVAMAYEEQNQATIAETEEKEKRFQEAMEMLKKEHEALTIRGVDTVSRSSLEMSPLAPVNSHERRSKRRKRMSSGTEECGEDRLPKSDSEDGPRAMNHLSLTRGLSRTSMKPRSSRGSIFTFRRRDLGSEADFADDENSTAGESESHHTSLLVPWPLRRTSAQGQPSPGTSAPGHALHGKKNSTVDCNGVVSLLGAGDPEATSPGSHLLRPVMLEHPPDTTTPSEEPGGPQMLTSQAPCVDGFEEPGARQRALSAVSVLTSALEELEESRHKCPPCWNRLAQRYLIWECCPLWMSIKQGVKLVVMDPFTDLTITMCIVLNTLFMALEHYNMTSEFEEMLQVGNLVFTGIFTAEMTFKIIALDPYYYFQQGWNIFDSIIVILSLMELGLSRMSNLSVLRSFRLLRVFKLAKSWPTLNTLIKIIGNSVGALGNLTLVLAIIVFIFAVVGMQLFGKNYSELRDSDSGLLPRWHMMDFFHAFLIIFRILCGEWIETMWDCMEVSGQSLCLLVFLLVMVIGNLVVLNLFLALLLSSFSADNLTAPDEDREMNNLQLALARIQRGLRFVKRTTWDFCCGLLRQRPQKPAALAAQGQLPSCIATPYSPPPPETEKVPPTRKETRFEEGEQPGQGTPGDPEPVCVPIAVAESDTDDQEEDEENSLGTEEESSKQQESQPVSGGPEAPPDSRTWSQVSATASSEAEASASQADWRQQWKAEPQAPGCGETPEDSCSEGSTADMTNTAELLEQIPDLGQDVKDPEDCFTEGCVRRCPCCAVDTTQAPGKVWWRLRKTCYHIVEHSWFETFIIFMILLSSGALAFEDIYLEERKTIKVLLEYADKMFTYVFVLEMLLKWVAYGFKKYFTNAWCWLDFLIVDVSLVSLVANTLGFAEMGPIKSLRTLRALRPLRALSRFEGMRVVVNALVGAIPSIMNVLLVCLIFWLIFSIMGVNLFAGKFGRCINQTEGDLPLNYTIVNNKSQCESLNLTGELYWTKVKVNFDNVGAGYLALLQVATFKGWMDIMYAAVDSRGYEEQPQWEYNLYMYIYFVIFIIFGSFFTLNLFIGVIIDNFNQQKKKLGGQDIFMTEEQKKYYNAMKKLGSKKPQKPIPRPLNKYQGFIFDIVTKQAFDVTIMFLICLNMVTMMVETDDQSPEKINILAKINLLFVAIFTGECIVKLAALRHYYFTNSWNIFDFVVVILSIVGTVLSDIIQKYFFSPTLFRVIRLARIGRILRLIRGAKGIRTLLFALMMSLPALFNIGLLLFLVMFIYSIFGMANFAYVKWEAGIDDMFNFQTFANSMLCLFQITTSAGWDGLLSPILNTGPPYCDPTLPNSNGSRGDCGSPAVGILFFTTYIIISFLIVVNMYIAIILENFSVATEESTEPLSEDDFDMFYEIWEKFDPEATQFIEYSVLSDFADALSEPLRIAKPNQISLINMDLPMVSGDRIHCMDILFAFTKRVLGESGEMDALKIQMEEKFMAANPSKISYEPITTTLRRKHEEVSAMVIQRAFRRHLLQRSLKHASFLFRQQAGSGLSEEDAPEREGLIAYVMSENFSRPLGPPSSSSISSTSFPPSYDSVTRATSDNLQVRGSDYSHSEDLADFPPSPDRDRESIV
Sequence of hERG (IKr) (human) (Q12809 whole entry): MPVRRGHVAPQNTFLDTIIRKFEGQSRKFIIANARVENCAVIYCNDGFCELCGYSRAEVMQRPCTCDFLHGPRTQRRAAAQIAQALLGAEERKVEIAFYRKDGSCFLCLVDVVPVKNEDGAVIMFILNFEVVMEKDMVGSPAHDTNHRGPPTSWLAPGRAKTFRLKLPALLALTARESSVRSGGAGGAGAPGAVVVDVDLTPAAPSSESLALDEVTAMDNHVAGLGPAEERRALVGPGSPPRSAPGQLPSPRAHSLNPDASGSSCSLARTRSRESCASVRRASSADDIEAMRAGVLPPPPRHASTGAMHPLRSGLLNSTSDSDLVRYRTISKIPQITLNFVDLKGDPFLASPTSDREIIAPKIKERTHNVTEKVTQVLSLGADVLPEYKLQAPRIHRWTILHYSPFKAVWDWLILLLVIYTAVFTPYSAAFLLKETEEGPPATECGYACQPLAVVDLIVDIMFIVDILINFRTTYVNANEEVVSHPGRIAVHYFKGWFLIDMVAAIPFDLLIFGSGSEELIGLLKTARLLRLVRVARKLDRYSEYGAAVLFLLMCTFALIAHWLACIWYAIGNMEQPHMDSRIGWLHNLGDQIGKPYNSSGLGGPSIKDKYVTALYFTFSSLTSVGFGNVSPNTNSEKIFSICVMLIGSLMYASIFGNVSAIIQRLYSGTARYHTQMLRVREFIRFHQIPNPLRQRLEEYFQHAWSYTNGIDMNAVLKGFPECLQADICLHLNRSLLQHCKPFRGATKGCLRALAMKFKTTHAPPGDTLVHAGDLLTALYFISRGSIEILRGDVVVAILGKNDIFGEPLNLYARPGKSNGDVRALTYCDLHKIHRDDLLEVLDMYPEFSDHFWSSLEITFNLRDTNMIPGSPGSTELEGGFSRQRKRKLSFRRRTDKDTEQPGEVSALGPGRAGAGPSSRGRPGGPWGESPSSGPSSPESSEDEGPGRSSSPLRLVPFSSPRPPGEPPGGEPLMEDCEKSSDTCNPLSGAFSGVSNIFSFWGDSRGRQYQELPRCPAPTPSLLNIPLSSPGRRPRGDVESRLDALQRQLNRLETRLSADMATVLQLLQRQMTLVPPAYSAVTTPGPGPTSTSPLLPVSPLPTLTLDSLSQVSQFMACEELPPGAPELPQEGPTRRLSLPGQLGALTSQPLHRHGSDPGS
Sequence of hKv1.7 (Q96RP8 whole entry): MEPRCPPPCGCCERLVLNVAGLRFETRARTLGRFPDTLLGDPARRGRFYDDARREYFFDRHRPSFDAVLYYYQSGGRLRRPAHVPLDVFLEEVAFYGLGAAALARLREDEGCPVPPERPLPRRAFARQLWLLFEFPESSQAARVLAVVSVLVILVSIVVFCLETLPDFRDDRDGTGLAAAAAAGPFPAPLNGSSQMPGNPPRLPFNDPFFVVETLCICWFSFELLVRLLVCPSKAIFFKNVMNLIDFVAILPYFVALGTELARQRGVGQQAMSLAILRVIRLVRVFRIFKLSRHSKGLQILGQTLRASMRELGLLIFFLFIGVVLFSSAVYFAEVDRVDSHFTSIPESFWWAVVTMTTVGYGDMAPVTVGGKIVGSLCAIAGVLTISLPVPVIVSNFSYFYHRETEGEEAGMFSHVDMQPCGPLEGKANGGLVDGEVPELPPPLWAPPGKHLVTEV

CC[C@H](C)[C@@H]1NC(=O)[C@@H](NC(=O)[C@H](CO)NC(=O)[C@@H](N)CCCNC(=N)N)CSSC[C@@H](C(=O)N[C@@H](C)C(=O)O)NC(=O)[C@H]([C@@H](C)O)NC(=O)CNC(=O)[C@@H]2CSSC[C@@H]3NC(=O)[C@H](CCCCN)NC(=O)[C@H](Cc4ccccc4)NC(=O)[C@H](C)NC(=O)[C@H]([C@@H](C)O)NC(=O)[C@H](CSSC[C@H](NC(=O)[C@H](Cc4ccccc4)NC(=O)[C@H](CO)NC(=O)[C@H](CC(C)C)NC(=O)[C@H](CCCNC(=N)N)NC(=O)[C@H](Cc4ccc(O)cc4)NC(=O)[C@H](CCCCN)NC(=O)[C@H](CCSC)NC(=O)[C@H](CO)NC(=O)[C@H](Cc4c[nH]cn4)NC(=O)[C@H](CCCCN)NC3=O)C(=O)N[C@@H](CCCNC(=N)N)C(=O)N[C@@H](CCCCN)C(=O)N[C@@H]([C@@H](C)O)C(=O)N2)NC(=O)[C@H](CCCNC(=N)N)NC(=O)[C@H](CO)NC(=O)[C@H](CCCCN)NC(=O)[C@@H]2CCCN2C(=O)[C@H]([C@@H](C)CC)NC(=O)[C@H]([C@@H](C)O)NC(=O)[C@H](CC(=O)O)NC1=O [[Lys16]ShK-Ala]
IC50 (hKv1.3 [1]): 0.06 nM
IC50 (hKv1.3 [2]; Kv1.3 (IWQ) IC50 (nM, Avg)): 9.5 nM
IC50 ([3]; read-out: IC50 blocking IL-2 secretion from human whole blood): 0.138 nM
IC50 ([3]; read-out: WB (IL-2) IC50): 0.138 nM
IC50 [3, 17]: 0.138 nM
IC50 ([4]; read-out: WB (IFNg) IC50): 0.266 nM
IC50 [4, 18]: 0.266 nM

PEG-[1-Nal 16]ShK: PEG conjugate of the 1-Nal16 analog of ShK, relatively Kv1.3-inactive (RSCIDTIPKSRCTAFXCKHSMKYRLSFCRKTCGTC; PEG; ShK PEGylated toxin peptide analog; PEGylated; 3-(1-naphthyl)alanine)
Times less activity of the PEG conjugate than of the free peptide (Kv1.3) (hKv1.3 [2]): about 57 times
Molar AUC exposure compared with PEG-[Lys16]ShK and anti-KLH Ab-[Lys16]ShK [5]: 6-8 ×

20 kDa-PEG-ShK: ShK conjugated with an N-terminal 20 kDa PEG moiety
IC50 (human Kv1.3 [6]): 0.299 nM
IC50 (hKv1.3 [2]; read-out: Kv1.3 (IWQ) IC50 (nM, Avg)): 1.21 nM
IC50 ([3]; read-out: WB (IL-2) IC50): 0.38 nM
IC50 [3, 17]: 0.387 nM
IC50 ([4]; read-out: WB (IFNg) IC50): 0.84 nM
IC50 [4, 18]: 0.855 nM
AUC0-inf ([7]; SC 0.3 mg/kg): 6,020 ng · hr · mL^−1
AUC0-t ([7]; SC 0.3 mg/kg): 6011 ng·h/mL
Cmax ([7]; SC 0.3 mg/kg): 165 ng/mL
DNAUC (0-inf) ([7]; SC 0.3 mg/kg): 20065
MRT ([7]; SC 0.3 mg/kg): 27 h
Tmax ([7]; SC 0.3 mg/kg): 24 h
AUC0-inf ([7]; SC 2 mg/kg): 42374 ± 10,237 ng · hr · mL^−1
AUC0-t ([7]; SC 2 mg/kg): 42347 ± 10,228 ng · hr · mL^−1
Cmax ([7]; SC 2 mg/kg): 1138 ± 404 ng/mL
DNAUC (0-inf) ([7]; SC 2 mg/kg): 21187
MRT ([7]; SC 2 mg/kg): 37 ± 3 h
Tmax ([7]; SC 2 mg/kg): 24 ± 0 h

substance P: basic secretagogue, positive control
Degranulation / histamine release of human CD34-derived mast cells [8]: highly active

MCDP: basic secretagogue, positive control (IKCNCKRHVIKPHICRKICGKN; ends and bridges not checked; cysteine pairing not given here; UniProt P01499 28-49, looked up)
Degranulation / histamine release of human CD34-derived mast cells [8]: highly active

Bivalent Fc-L10-ShK[2-35] homodimer: bivalent IgG1 Fc-L10-ShK[2-35] peptibody, Example 2 of WO2008/088422A2 (Fc-GGGGSGGGGSSCIDTIPKSRCTAFQCKHSMKYRLSFCRKTCGTC; ends and bridges not checked; also: homodimer via IgG1 Fc)
Kv1.1/Kv1.3 Selectivity Ratio (human Kv1.3 [6]): 3.54
IC50 (human Kv1.3 [6]): 0.116 nM
IC50 (human Kv1.1 [9]): 0.411 nM
Potency Relative to ShK (WB, IL2) [3]: 8.73
IC50 ([3]; read-out: WB (IL-2) IC50): 0.585 nM
IC50 ([4]; read-out: WB (IFNg) IC50): 2.29 nM

20 kDa PEG-[Lys16]ShK (peptide)
% Inhibition [10]: 101%
% Inhibition [11]: 71%
BKCa IC50 (BKCa (human)): > 10000 nM
cyno whole blood PD assay, IL-4 response IC50 [12]: 0.17 nM
cyno whole blood PD assay, IL-17 response IC50 [12]: 0.09 nM
Cav1.2 (ICa) IC50 (hCav1.2 (ICa) (human)): > 30000 nM
hERG (IKr) IC50 (hERG (IKr) (human)): > 10000 nM
Kv1.2 IC50 (hKv1.2): 639 nM
Kv1.4 IC50 (hKv1.4): > 10000 nM
Kv1.5 IC50 (hKv1.5): > 30000 nM
Kv1.6 IC50 (hKv1.6): 466 nM
Kv1.7 IC50 (hKv1.7): > 10000 nM
Kv4.3 (Ito) IC50 (hKv4.3 (Ito) (human)): > 30000 nM
Nav1.5 (INa) IC50 (hNav1.5 (INa) (human)): > 30000 nM
Kv1.1 (IWQ) IC50 (human Kv1.1 [13]): 1080 nM
IFNγ production in human whole blood IC50 (human Kv1.3 [14]): 0.24 nM
IL-2 production in human whole blood IC50 (human Kv1.3 [14]): 0.109 nM
Kv1.3 (IWQ) IC50 (human Kv1.3 [14]): 0.665 nM
WB (IFNg) IC50 (human Kv1.3 [14]): 0.215 nM
WB (IL-2) IC50 (human Kv1.3 [14]): 0.104 nM
whole blood IL-2 secretion IC95 (human Kv1.3 [14]): 1.01 nM
IC50 [15]: 1700 nM
IC50 [16]: 10000 nM

Bivalent Fc-L10-ShK[1-35] homodimer: bivalent IgG1 Fc-L10-ShK[1-35] peptibody, Example 1 of WO2008/088422A2 (GGGGSGGGGSRSCIDTIPKSRCTAFQCKHSMKYRLSFCRKTCGTC; not fully specified (N-terminus); ends and bridges not checked; also: homodimer (bivalent Fc peptibody))
IC50 (human Kv1.1 [9]): 0.067 nM
IC50 ([3]; read-out: WB (IL-2) IC50): 0.386 nM
IC50 ([4]; read-out: WB (IFNg) IC50): 0.32 nM
